Assay results: patent publication US20200317768A1 (published 2020)

Legend:
[1] = molecular target: T1, cynomolgus monkey FcγRIIa2 extracellular domain, C-terminal His-tag (cynomolgus monkey); assay: SPR (Biacore); KD of SG1 / KD of variant;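 also: relative to parent M103205H795-SG1 carrying the SG1 human heavy chain constant region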
T1 construct: also called cyno FcγRIIa2; cynoFcgRIIa2
T1 chain: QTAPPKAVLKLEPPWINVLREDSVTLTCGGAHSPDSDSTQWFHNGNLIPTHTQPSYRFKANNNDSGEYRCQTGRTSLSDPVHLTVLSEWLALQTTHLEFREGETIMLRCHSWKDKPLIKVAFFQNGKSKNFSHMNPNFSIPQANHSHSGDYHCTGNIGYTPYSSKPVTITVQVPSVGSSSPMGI

[2] = molecular target: T2, cynomolgus monkey FcγRIIb extracellular domain, C-terminal His-tag (cynomolgus monkey); assay: SPR (Biacore); KD of SG1 / KD of variant;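 also: relative to parent M103205H795-SG1 carrying the SG1 human heavy chain constant region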
T2 construct: also called cyno FcγRIIb; cynoFcγRIIb
T2 chain: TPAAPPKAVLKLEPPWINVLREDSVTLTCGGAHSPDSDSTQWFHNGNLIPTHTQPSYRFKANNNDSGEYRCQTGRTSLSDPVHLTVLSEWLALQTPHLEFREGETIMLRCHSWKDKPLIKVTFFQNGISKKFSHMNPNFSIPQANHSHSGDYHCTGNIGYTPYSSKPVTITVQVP

B1: M103205H795-MY117/M103202L889-SK1 (antibody, human IgG1, kappa)
heavy: QVTLKESGPVLVKPTETLTLTCTVSGIDLSHDDISWVRQAPGKGLEWVGIISYAGSTYYASWAKGRLTISKDTSKNQVVLTMTNMDPVDTATYYCARGVPAYSHGGDLWGQGTLVTVSSASTKGPSVFPLAPSSKSTSGGTAALGCLVKDYFPEPVTVSWNSGALTSGVHTFPAVLQSSGLYSLSSVVTVPSSSLGTQTYICNVNHKPSNTKVDKKVEPKSCDKTHTCPPCPAPEWLNGPSVFLFPPKPKDTLMISRTPEVTCVVVDVAEEDPEVKFNWYVDGVEVHNAKTKPREEQYNSTYRVVSVLTVLHQDWLNGKEYKCKVSNKALPAPIEKTISKAKGQPREPQVYTLPPSREEMTKNQVSLTCLVKGFYPSDIAVEWESNGQPENNYKTTPMVLDSDGSFFLYSKLTVDKSRWQQGNVFSCSVMHEALHNHYTQKSLSLSP
light: DIVMTQSPATLSLSPGERATLSCTSSQSVYHANWLSWFQQKPGQPPKLLIYWASTLAYGVPSRFSGSGSGTDFTLTISSLQPEDAATYYCAGGYGGGRYAFGQGTKVEIKRTVAAPSVFIFPPSDEQLKSGTASVVCLLNNFYPREAKVQWKVDNALQSGNSQESVTEQDSKDSTYSLSSTLTLSKADYEKHKVYACEVTHQGLSSPVTKSFNRGEC
notes: Substitutions introduced into M103205H795-SG1; expressed with M103202L889-SK1 as light chain
- KD fold (SG1 = 1) [1]: 1.6 fold
- KD fold (SG1 = 1) [2]: 1.8 fold

B2: M103205H795-MY141/M103202L889-SK1 (antibody, human IgG1, kappa)
heavy: QVTLKESGPVLVKPTETLTLTCTVSGIDLSHDDISWVRQAPGKGLEWVGIISYAGSTYYASWAKGRLTISKDTSKNQVVLTMTNMDPVDTATYYCARGVPAYSHGGDLWGQGTLVTVSSASTKGPSVFPLAPSSKSTSGGTAALGCLVKDYFPEPVTVSWNSGALTSGVHTFPAVLQSSGLYSLSSVVTVPSSSLGTQTYICNVNHKPSNTKVDKKVEPKSCDKTHTCPPCPAPELLNGPSVFLFPPKPKDTLMISRTPEVTCVVVDVAHEDPEVKFNWYVDGVEVHNAKTKPREEQYNSTYRVVSVLTVLHQDWLNGKEYKCKVSNKALPAPIEKTISKAKGQPREPQVYTLPPSREEMTKNQVSLTCLVKGFYPSDIAVEWESNGQPENNYKTTPMVLDSDGSFFLYSKLTVDKSRWQQGNVFSCSVMHEALHNHYTQKSLSLSP
light: DIVMTQSPATLSLSPGERATLSCTSSQSVYHANWLSWFQQKPGQPPKLLIYWASTLAYGVPSRFSGSGSGTDFTLTISSLQPEDAATYYCAGGYGGGRYAFGQGTKVEIKRTVAAPSVFIFPPSDEQLKSGTASVVCLLNNFYPREAKVQWKVDNALQSGNSQESVTEQDSKDSTYSLSSTLTLSKADYEKHKVYACEVTHQGLSSPVTKSFNRGEC
notes: as for B1
- KD fold (SG1 = 1) [1]: 1.8 fold
- KD fold (SG1 = 1) [2]: 1 fold

B3: M103205H795-MY197/M103202L889-SK1 (antibody, human IgG1, kappa)
heavy: QVTLKESGPVLVKPTETLTLTCTVSGIDLSHDDISWVRQAPGKGLEWVGIISYAGSTYYASWAKGRLTISKDTSKNQVVLTMTNMDPVDTATYYCARGVPAYSHGGDLWGQGTLVTVSSASTKGPSVFPLAPSSKSTSGGTAALGCLVKDYFPEPVTVSWNSGALTSGVHTFPAVLQSSGLYSLSSVVTVPSSSLGTQTYICNVNHKPSNTKVDKKVEPKSCDKTHTCPPCPAPELLNGPSVFLFPPKPKDTLMISRTPEVTCVVVDVSDEDPEVKFNWYVDGVEVHNAKTKPREEQYNSTYRVVSVLTVLHQDWLNGKEYKCKVSNKALPKPIEKTISKAKGQPREPQVYTLPPSREEMTKNQVSLTCLVKGFYPSDIAVEWESNGQPENNYKTTPMVLDSDGSFFLYSKLTVDKSRWQQGNVFSCSVMHEALHNHYTQKSLSLSP
light: DIVMTQSPATLSLSPGERATLSCTSSQSVYHANWLSWFQQKPGQPPKLLIYWASTLAYGVPSRFSGSGSGTDFTLTISSLQPEDAATYYCAGGYGGGRYAFGQGTKVEIKRTVAAPSVFIFPPSDEQLKSGTASVVCLLNNFYPREAKVQWKVDNALQSGNSQESVTEQDSKDSTYSLSSTLTLSKADYEKHKVYACEVTHQGLSSPVTKSFNRGEC
notes: as for B1
- KD fold (SG1 = 1) [1]: 9.1 fold
- KD fold (SG1 = 1) [2]: 10.6 fold

B4: M103205H795-MY147/M103202L889-SK1 (antibody, human IgG1, kappa)
heavy: QVTLKESGPVLVKPTETLTLTCTVSGIDLSHDDISWVRQAPGKGLEWVGIISYAGSTYYASWAKGRLTISKDTSKNQVVLTMTNMDPVDTATYYCARGVPAYSHGGDLWGQGTLVTVSSASTKGPSVFPLAPSSKSTSGGTAALGCLVKDYFPEPVTVSWNSGALTSGVHTFPAVLQSSGLYSLSSVVTVPSSSLGTQTYICNVNHKPSNTKVDKKVEPKSCDKTHTCPPCPAPELWNGPSVFLFPPKPKDTLMISRTPEVTCVVVDVSEEDPEVKFNWYVDGVEVHNAKTKPREEQYNSTYRVVSVLTVLHQDWLNGKEYKCKVSNKALPAPIEKTISKAKGQPREPQVYTLPPSREEMTKNQVSLTCLVKGFYPSDIAVEWESNGQPENNYKTTPMVLDSDGSFFLYSKLTVDKSRWQQGNVFSCSVMHEALHNHYTQKSLSLSP
light: DIVMTQSPATLSLSPGERATLSCTSSQSVYHANWLSWFQQKPGQPPKLLIYWASTLAYGVPSRFSGSGSGTDFTLTISSLQPEDAATYYCAGGYGGGRYAFGQGTKVEIKRTVAAPSVFIFPPSDEQLKSGTASVVCLLNNFYPREAKVQWKVDNALQSGNSQESVTEQDSKDSTYSLSSTLTLSKADYEKHKVYACEVTHQGLSSPVTKSFNRGEC
notes: as for B1
- KD fold (SG1 = 1) [1]: 2.3 fold
- KD fold (SG1 = 1) [2]: 3.9 fold
